Series [1] has as its system HeLa Kyoto. Description: solubility change mitosis vs G1/S (difference of NP-40 vs SDS log2 ratios) (log2 ratio difference); higher = more soluble in mitosis.
The test system of series [2] is HeLa Kyoto. Description: solubility in G1/S (NP-40 vs SDS abundance) (log2 ratio); higher = more soluble. The conditions noted are these: cell cycle stage: G1/S.
Series [3] has as its system HeLa Kyoto. As to the kind of experiment: thermal stability score vs G1/S (z-score of summed log2 fold changes over temperatures); higher = more thermally stable than in G1/S.
For series [4], the system named is HeLa Kyoto. As to the kind of experiment: melting temperature (median over replicates), in situ; higher = more thermally stable.
Where [5] appears, read: cell cycle stage: early G1 (4.5 h after nocodazole release).
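Throughout, for melting temperature (median over replicates), in situ: HeLa Kyoto cells synchronized by double thymidine or nocodazole block, proteins quantified by TMT10plex mass spectrometry, three independent biological replicates.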
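Throughout, for solubility change mitosis vs G1/S (difference of NP-40 vs SDS log2 ratios): synchronized HeLa Kyoto cells (double thymidine block for G1/S, nocodazole release for mitosis), protein amounts in NP-40 versus SDS lysates quantified by mass spectrometry, three biological replicates.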
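Throughout, for solubility in G1/S (NP-40 vs SDS abundance): HeLa Kyoto cells arrested at G1/S by double thymidine block, proteins quantified by TMT10plex mass spectrometry in mild NP-40 versus SDS extracts, three biological replicates.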
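Throughout, for thermal stability score vs G1/S (z-score of summed log2 fold changes over temperatures): synchronized HeLa Kyoto cells, proteins quantified by TMT10plex mass spectrometry, three biological replicates, mitosis taken 0.5 h after nocodazole release, G1/S directly after double thymidine block.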

Turning to “MNPDLRRERDSASFNPELLTHILDGSPEKTRRRREIENMILNDPDFQHEDLNFLTRSQRYEVAVRKSAIMVKKMREFGIADPDEIMWFKKLHLVNFVEPVGLNYSMFIPTLLNQGTTAQKEKWLLSSKGLQIIGTYAQTEMGHGTHLRGLETTATYDPETQEFILNSPTVTSIKWWPGGLGKTSNHAIVLAQLITKGKCYGLHAFIVPIREIGTHKPLPGITVGDIGPKFGYDEIDNGYLKMDNHRIPRENMLMKYAQVKPDGTYVKPLSNKLTYGTMVFVRSFLVGEAARALSKACTIAIRYSAVRHQSEIKPGEPEPQILDFQTQQYKLFPLLATAYAFQFVGAYMKETYHRINEGIGQGDLSELPELHALTAGLKAFTSWTANTGIEACRMACGGHGYSHCSGLPNIYVNFTPSCTFEGENTVMMLQTARFLMKSYDQVHSGKLVCGMVSYLNDLPSQRIQPQQVAVWPTMVDINSPESLTEAYKLRAARLVEIAAKNLQKEVIHRKSKEVAWNLTSVDLVRASEAHCHYVVVKLFSEKLLKIQDKAIQAVLRSLCLLYSLYGISQNAGDFLQGSIMTEPQITQVNQRVKELLTLIRSDAVALVDAFDFQDVTLGSVLGRYDGNVYENLFEWAKNSPLNKAEVHESYKHLKSLQSKL [ACOX1]”, the “solubility change mitosis (log2)” value in series [1] is -0.212. Besides, the “solubility in G1/S (log2)” value in series [2] was 0.331. Also, the thermal stability score was -1.6 in series [3] (setting [5]) and -3.2 in series [3] (cell cycle stage: mitosis). Also, the results for the melting temperature in series [4] (cell cycle stage: G1/S) and in series [4] (cell cycle stage: mitosis) were 55.9 °C and 58.3 °C, respectively.

Regarding “MNPESSIFIEDYLKYFQDQVSRENLLQLLTDDEAWNGFVAAAELPRDEADELRKALNKLASHMVMKDKNRHDKDQQHRQWFLKEFPRLKRELEDHIRKLRALAEEVEQVHRGTTIANVVSNSVGTTSGILTLLGLGLAPFTEGISFVLLDTGMGLGAAAAVAGITCSVVELVNKLRARAQARNLDQSGTNVAKVMKEFVGGNTPNVLTLVDNWYQVTQGIGRNIRAIRRARANPQLGAYAPPPHVIGRISAEGGEQVERVVEGPAQAMSRGTMIVGAATGGILLLLDVVSLAYESKHLLEGAKSESAEELKKRAQELEGKLNFLTKIHEMLQPGQDQ [APOL2]”, the “solubility change mitosis (log2)” value in series [1] amounted to 0.0238. Also, the “solubility in G1/S (log2)” value in series [2] was 0.309. Further, the thermal stability score was determined as 4.12 in series [3] (setting [5]) and 3.26 in series [3] (cell cycle stage: mitosis). Also, the results for the melting temperature in series [4] (cell cycle stage: G1/S) and in series [4] (cell cycle stage: mitosis) were 50 °C and 50.8 °C, respectively.

On to “MNRGFSRKSHTFLPKIFFRKMSSSGAKDKPELQFPFLQDEDTVATLLECKTLFILRGLPGSGKSTLARVIVDKYRDGTKMVSADAYKITPGARGAFSEEYKRLDEDLAAYCRRRDIRILVLDDTNHERERLEQLFEMADQYQYQVVLVEPKTAWRLDCAQLKEKNQWQLSADDLKKLKPGLEKDFLPLYFGWFLTKKSSETLRKAGQVFLEELGNHKAFKKELRQFVPGDEPREKMDLVTYFGKRPPGVLHCTTKFCDYGKAPGAEEYAQQDVLKKSYSKAFTLTISALFVTPKTTGARVELSEQQLQLWPSDVDKLSPTDNLPRGSRAHITLGCAADVEAVQTGLDLLEILRQEKGGSRGEEVGELSRGKLYSLGNGRWMLTLAKNMEVRAIFTGYYGKGKPVPTQGSRKGGALQSCTII [CNP]”, for which the “solubility change mitosis (log2)” value in series [1] was -0.00285. For the same sequence, the “solubility in G1/S (log2)” value in series [2] amounted to 0.107. Also, the thermal stability score in series [3] (setting [5]) came out at 1.08; in series [3] (cell cycle stage: mitosis) it was 0.579. The melting temperature in series [4] (cell cycle stage: G1/S) worked out at 50.6 °C; in series [4] (cell cycle stage: mitosis) it was 50.3 °C.

Take “MNSIKNVPARVLSRRPGHSLEAEREQFDKTQAISISKAINTQEAPVKEKHARRIILGTHHEKGAFTFWSYAIGLPLPSSSILSWKFCHVLHKVLRDGHPNVLHDCQRYRSNIREIGDLWGHLHDRYGQLVNVYTKLLLTKISFHLKHPQFPAGLEVTDEVLEKAAGTDVNNIFQLTVEMFDYMDCELKLSESVFRQLNTAIAVSQMSSGQCRLAPLIQVIQDCSHLYHYTVKLLFKLHSCLPADTLQGHRDRFHEQFHSLRNFFRRASDMLYFKRLIQIPRLPEGPPNFLRASALAEHIKPVVVIPEEAPEDEEPENLIEISTGPPAGEPVVVADLFDQTFGPPNGSVKDDRDLQIESLKREVEMLRSELEKIKLEAQRYIAQLKSQVNALEGELEEQRKQKQKALVDNEQLRHELAQLRAAQLEGERSQGLREEAERKASATEARYNKLKEKHSELVHVHAELLRKNADTAKQLTVTQQSQEEVARVKEQLAFQVEQVKRESELKLEEKSDQLEKLKRELEAKAGELARAQEALSHTEQSKSELSSRLDTLSAEKDALSGAVRQREADLLAAQSLVRETEAALSREQQRSSQEQGELQGRLAERESQEQGLRQRLLDEQFAVLRGAAAEAAGILQDAVSKLDDPLHLRCTSSPDYLVSRAQEALDAVSTLEEGHAQYLTSLADASALVAALTRFSHLAADTIINGGATSHLAPTDPADRLIDTCRECGARALELMGQLQDQQALRHMQASLVRTPLQGILQLGQELKPKSLDVRQEELGAVVDKEMAATSAAIEDAVRRIEDMMNQARHASSGVKLEVNERILNSCTDLMKAIRLLVTTSTSLQKEIVESGRGAATQQEFYAKNSRWTEGLISASKAVGWGATQLVEAADKVVLHTGKYEELIVCSHEIAASTAQLVAASKVKANKHSPHLSRLQECSRTVNERAANVVASTKSGQEQIEDRDTMDFSGLSLIKLKKQEMETQVRVLELEKTLEAERMRLGELRKQHYVLAGASGSPGEEVAIRPSTAPRSVTTKKPPLAQKPSVAPRQDHQLDKKDGIYPAQLVNY [HIP1R]”: in series [1], the “solubility change mitosis (log2)” value is -0.0177. The “solubility in G1/S (log2)” value in series [2] is -0.0581. For the same sequence, the results for the thermal stability score in series [3] (setting [5]) and in series [3] (cell cycle stage: mitosis) were -0.263 and 0.371, respectively. Moreover, the figures for the melting temperature in series [4] (cell cycle stage: G1/S) and in series [4] (cell cycle stage: mitosis) were 50 °C and 49.5 °C, respectively.

Consider “MNSMKTEENKSFSAMEDDQRTRPEVSKDTVMKQTHADTPVDHCLSGIRKCSSTFKLKSEVNKHETALEMQNPNLNNKECCFTFTLNGNSRKLDRSVFTAYGKPSESIYSALSANDYFSERIKNQFNKNIIVYEEKTIDGHINLGMPLKCLPSDSHFKITFGQRKSSKEDGHILRQCENPNMECILFHVVAIGRTRKKIVKINELHEKGSKLCIYALKGETIEGALCKDGRFRSDIGEFEWKLKEGHKKIYGKQSMVDEVSGKVLEMDISKKKALQQKDIHKKIKQNESATDEINHQSLIQSKKKVHKPKKDGETKDVEHSREQILPPQDLSHYIKDKTRQTIPRIRNYYFCSLPRKYRQINSQVRRRPHLGRRYAINLDVQKEAINLLKNYQTLNEAIMHQYPNFKEEAQWVRKYFREEQKRMNLSPAKQFNIYKKDFGKMTANSVSVATCEQLTYYSKSVGFMQWDNNGNTGNATCFVFNGGYIFTCRHVVHLMVGKNTHPSLWPDIISKCAKVTFTYTEFCPTPDNWFSIEPWLKVSNENLDYAILKLKENGNAFPPGLWRQISPQPSTGLIYLIGHPEGQIKKIDGCTVIPLNERLKKYPNDCQDGLVDLYDTTSNVYCMFTQRSFLSEVWNTHTLSYDTCFSDGSSGSPVFNASGKLVALHTFGLFYQRGFNVHALIEFGYSMDSILCDIKKTNESLYKSLNDEKLETYDEEKGKQESSLQDHQIEPMEC [FAM111B]”, for which, in series [1], the “solubility change mitosis (log2)” value is -7.96e-05. In addition, the “solubility in G1/S (log2)” value in series [2] is -0.274. Also, the results for the thermal stability score in series [3] (setting [5]) and in series [3] (cell cycle stage: mitosis) were 2.69 and 4.09, respectively. Moreover, the melting temperature amounted to 46.9 °C in series [4] (cell cycle stage: G1/S) and 50.3 °C in series [4] (cell cycle stage: mitosis).

Source of the values: the supplement of paper PMC5998384.
